Results reported in patent US20140087995A1 (published 2014).
Numbered stars: 1 amine (or outer) side, 2 acyl side, 3 side chain; on linkers, the order of the positions; unused ones are H or OH. Bridge positions count the residues as written; N and C are the ends. * marks the point of attachment. C20 diacid = O=C(O)CCCCCCCCCCCCCCCCCCC(=O)*; γGlu = O=C(O)[C@H](CCC(=O)[*:2])N[*:1]

T1: human amylin receptor (human, UniProt P30988 25-474; O60896 24-148, limits assumed)
T1 construct: whole, on cells; Calcitonin receptor plus RAMP-3 gives the amylin 3(a) receptor; membranes of Amylin 3(a)/CRE-luc cells were used; also called hAmylin-R; hAmylinR
T1 sequence (looked up) 1: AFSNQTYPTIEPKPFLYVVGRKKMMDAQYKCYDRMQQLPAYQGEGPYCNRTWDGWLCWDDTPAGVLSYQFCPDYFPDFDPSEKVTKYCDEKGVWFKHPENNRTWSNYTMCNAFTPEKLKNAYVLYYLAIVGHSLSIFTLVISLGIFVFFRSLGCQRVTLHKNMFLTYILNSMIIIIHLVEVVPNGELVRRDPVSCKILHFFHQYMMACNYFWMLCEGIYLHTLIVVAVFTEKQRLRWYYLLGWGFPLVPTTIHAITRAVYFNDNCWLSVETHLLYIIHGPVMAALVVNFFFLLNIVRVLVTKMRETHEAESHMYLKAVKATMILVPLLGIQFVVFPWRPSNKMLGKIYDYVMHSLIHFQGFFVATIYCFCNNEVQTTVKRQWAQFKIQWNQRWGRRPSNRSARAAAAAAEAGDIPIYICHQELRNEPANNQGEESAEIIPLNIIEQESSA
T1 sequence (looked up) 2: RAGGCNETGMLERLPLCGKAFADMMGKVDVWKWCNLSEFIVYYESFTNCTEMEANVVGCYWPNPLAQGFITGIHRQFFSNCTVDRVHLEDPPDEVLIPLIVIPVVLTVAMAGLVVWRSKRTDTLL


Target: T1, human amylin receptor
Assay: SPA competition binding, displacement of 125I-rat amylin from membranes with human amylin 3(a) receptor (Assay V)
Method: The binding assay was performed using scintillation proximity assay (SPA) beads (RPNQ0001) from PerkinElmer and cell membranes from the Amylin 3(a)/CRE-luc cells (as described in Assay (II)) were used. Membranes were prepared in the following way; the cells were rinsed with PBS and incubated with Versene for approximately 5 min before harvesting. The cells were flushed with PBS and the cell-suspension was centrifuged for 5 min at 1000 rpm. Cells were homogenized (ultrathurrax) in a buffer containing 20 mM Na-HEPES and 10 mM EDTA (pH 7.4) and centrifuged at 20.000 rpm for 15 min. The resulting pellet was resuspended, homogenized and centrifuged (20.000 rpm, 15 min) in a buffer containing 20 mM Na-HEPES and 0.1 mM EDTA (pH 7.4, buffer 2). The resulting pellet was resuspended in buffer 2 and protein concentration was measured (BCA protein Assay, Pierce). The homogenate was kept cold during the whole procedure. The membranes were kept at −80° C. until use. The assay was performed in a 384 well Optiplate (PerkinElmer) in a total volume of 40 ul. Membranes were mixed with SPA beads. Final concentration of membranes 35 ng/μL final and SPA beads was 0.05 mg/well. Test-compounds were dissolved in DMSO and further diluted in assay buffer (50 mM Hepes, pH 7.4, 1 mM CaCl2, 5 mM MgCl₂, 0.1% OA and 0.02% Tween20). […] The final mixture was incubated with shaking at 400 rpm for 120 min at 25° C. prior to centrifugation (1500 rpm, 10 min). Samples were analyzed on TopCounter™ (Packard). The IC₅₀ was calculated using (one site binding competition analysis) GraphPad Prism5 as a measure of receptor affinity.

Row | IC50 [nM] | Binder
1 | 0.674 | {C20 diacid-γGlu}-KCNTATCATQRLAEFLRHSSPNFGAPLSSTNVGSNTY-NH2 (disulfide 2-7; SMILES CC(C)C[C@H](NC(=O)[C@H](CCCNC(=N)N)NC(=O)[C@H](CCC(N)=O)NC(=O)[C@@H](NC(=O)[C@H](C)NC(=O)[C@@H]1CSSC[C@H](NC(=O)[C@H](CCCCN)NC(=O)CC[C@H](NC(=O)CCCCCCCCCCCCCCCCCCC(=O)O)C(=O)O)C(=O)N[C@@H](CC(N)=O)C(=O)N[C@@H]([C@@H](C)O)C(=O)N[C@@H](C)C(=O)N[C@@H]([C@@H](C)O)C(=O)N1)[C@@H](C)O)C(=O)N[C@@H](C)C(=O)N[C@@H](CCC(=O)O)C(=O)N[C@@H](Cc1ccccc1)C(=O)N[C@@H](CC(C)C)C(=O)N[C@@H](CCCNC(=N)N)C(=O)N[C@@H](Cc1c[nH]cn1)C(=O)N[C@@H](CO)C(=O)N[C@@H](CO)C(=O)N1CCC[C@H]1C(=O)N[C@@H](CC(N)=O)C(=O)N[C@@H](Cc1ccccc1)C(=O)NCC(=O)N[C@@H](C)C(=O)N1CCC[C@H]1C(=O)N[C@@H](CC(C)C)C(=O)N[C@@H](CO)C(=O)N[C@@H](CO)C(=O)N[C@H](C(=O)N[C@@H](CC(N)=O)C(=O)N[C@H](C(=O)NCC(=O)N[C@@H](CO)C(=O)N[C@@H](CC(N)=O)C(=O)N[C@H](C(=O)N[C@@H](Cc1ccc(O)cc1)C(N)=O)[C@@H](C)O)C(C)C)[C@@H](C)O, also called 14E, 17R, 21P, 26P) [N^α1-[(4S)-4-carboxy-4-(19-carboxynonadecanoylamino)butanoyl]-[Glu14,Arg17,Pro21,Pro26]-h-amylin]
2 | 0.1 | {C20 diacid-γGlu}-KCNTATCATQRLAEFLRHSSPNFGAIPSSTNVGPNTY-NH2 (disulfide 2-7; SMILES CC[C@H](C)[C@H](NC(=O)[C@H](C)NC(=O)CNC(=O)[C@H](Cc1ccccc1)NC(=O)[C@H](CC(N)=O)NC(=O)[C@@H]1CCCN1C(=O)[C@H](CO)NC(=O)[C@H](CO)NC(=O)[C@H](Cc1c[nH]cn1)NC(=O)[C@H](CCCNC(=N)N)NC(=O)[C@H](CC(C)C)NC(=O)[C@H](Cc1ccccc1)NC(=O)[C@H](CCC(=O)O)NC(=O)[C@H](C)NC(=O)[C@H](CC(C)C)NC(=O)[C@H](CCCNC(=N)N)NC(=O)[C@H](CCC(N)=O)NC(=O)[C@@H](NC(=O)[C@H](C)NC(=O)[C@@H]1CSSC[C@H](NC(=O)[C@H](CCCCN)NC(=O)CC[C@H](NC(=O)CCCCCCCCCCCCCCCCCCC(=O)O)C(=O)O)C(=O)N[C@@H](CC(N)=O)C(=O)N[C@@H]([C@@H](C)O)C(=O)N[C@@H](C)C(=O)N[C@@H]([C@@H](C)O)C(=O)N1)[C@@H](C)O)C(=O)N1CCC[C@H]1C(=O)N[C@@H](CO)C(=O)N[C@@H](CO)C(=O)N[C@H](C(=O)N[C@@H](CC(N)=O)C(=O)N[C@H](C(=O)NCC(=O)N1CCC[C@H]1C(=O)N[C@@H](CC(N)=O)C(=O)N[C@H](C(=O)N[C@@H](Cc1ccc(O)cc1)C(N)=O)[C@@H](C)O)C(C)C)[C@@H](C)O, also called 14E, 17R, 21P, 27P, 34P)

Second part, the binder before the results:

Row | Binder | IC50 [nM]
3 | {C20 diacid-γGlu}-KCNTATCATQRLAEFLRHSSPNFGAIPSSTNVGSDTP-NH2 (disulfide 2-7; SMILES CC[C@H](C)[C@H](NC(=O)[C@H](C)NC(=O)CNC(=O)[C@H](Cc1ccccc1)NC(=O)[C@H](CC(N)=O)NC(=O)[C@@H]1CCCN1C(=O)[C@H](CO)NC(=O)[C@H](CO)NC(=O)[C@H](Cc1c[nH]cn1)NC(=O)[C@H](CCCNC(=N)N)NC(=O)[C@H](CC(C)C)NC(=O)[C@H](Cc1ccccc1)NC(=O)[C@H](CCC(=O)O)NC(=O)[C@H](C)NC(=O)[C@H](CC(C)C)NC(=O)[C@H](CCCNC(=N)N)NC(=O)[C@H](CCC(N)=O)NC(=O)[C@@H](NC(=O)[C@H](C)NC(=O)[C@@H]1CSSC[C@H](NC(=O)[C@H](CCCCN)NC(=O)CC[C@H](NC(=O)CCCCCCCCCCCCCCCCCCC(=O)O)C(=O)O)C(=O)N[C@@H](CC(N)=O)C(=O)N[C@@H]([C@@H](C)O)C(=O)N[C@@H](C)C(=O)N[C@@H]([C@@H](C)O)C(=O)N1)[C@@H](C)O)C(=O)N1CCC[C@H]1C(=O)N[C@@H](CO)C(=O)N[C@@H](CO)C(=O)N[C@H](C(=O)N[C@@H](CC(N)=O)C(=O)N[C@H](C(=O)NCC(=O)N[C@@H](CO)C(=O)N[C@@H](CC(=O)O)C(=O)N[C@H](C(=O)N1CCC[C@H]1C(N)=O)[C@@H](C)O)C(C)C)[C@@H](C)O, also called 14E, 17R, 21P, 27P, 35D, 37P) | 0.105
4 | {C20 diacid-γGlu}-KCNTATCATQRLAEFLRHSSPNFGAIPSSTPVGSNTY-NH2 (disulfide 2-7; SMILES CC[C@H](C)[C@H](NC(=O)[C@H](C)NC(=O)CNC(=O)[C@H](Cc1ccccc1)NC(=O)[C@H](CC(N)=O)NC(=O)[C@@H]1CCCN1C(=O)[C@H](CO)NC(=O)[C@H](CO)NC(=O)[C@H](Cc1c[nH]cn1)NC(=O)[C@H](CCCNC(=N)N)NC(=O)[C@H](CC(C)C)NC(=O)[C@H](Cc1ccccc1)NC(=O)[C@H](CCC(=O)O)NC(=O)[C@H](C)NC(=O)[C@H](CC(C)C)NC(=O)[C@H](CCCNC(=N)N)NC(=O)[C@H](CCC(N)=O)NC(=O)[C@@H](NC(=O)[C@H](C)NC(=O)[C@@H]1CSSC[C@H](NC(=O)[C@H](CCCCN)NC(=O)CC[C@H](NC(=O)CCCCCCCCCCCCCCCCCCC(=O)O)C(=O)O)C(=O)N[C@@H](CC(N)=O)C(=O)N[C@@H]([C@@H](C)O)C(=O)N[C@@H](C)C(=O)N[C@@H]([C@@H](C)O)C(=O)N1)[C@@H](C)O)C(=O)N1CCC[C@H]1C(=O)N[C@@H](CO)C(=O)N[C@@H](CO)C(=O)N[C@H](C(=O)N1CCC[C@H]1C(=O)N[C@H](C(=O)NCC(=O)N[C@@H](CO)C(=O)N[C@@H](CC(N)=O)C(=O)N[C@H](C(=O)N[C@@H](Cc1ccc(O)cc1)C(N)=O)[C@@H](C)O)C(C)C)[C@@H](C)O, also called 14E, 17R, 21P, 27P, 31P) | 0.204
5 | {C20 diacid-γGlu}-KCNTATCATQRLAEFLRHSSPNFGAIPSSTNVGSHTY-NH2 (disulfide 2-7; SMILES CC[C@H](C)[C@H](NC(=O)[C@H](C)NC(=O)CNC(=O)[C@H](Cc1ccccc1)NC(=O)[C@H](CC(N)=O)NC(=O)[C@@H]1CCCN1C(=O)[C@H](CO)NC(=O)[C@H](CO)NC(=O)[C@H](Cc1c[nH]cn1)NC(=O)[C@H](CCCNC(=N)N)NC(=O)[C@H](CC(C)C)NC(=O)[C@H](Cc1ccccc1)NC(=O)[C@H](CCC(=O)O)NC(=O)[C@H](C)NC(=O)[C@H](CC(C)C)NC(=O)[C@H](CCCNC(=N)N)NC(=O)[C@H](CCC(N)=O)NC(=O)[C@@H](NC(=O)[C@H](C)NC(=O)[C@@H]1CSSC[C@H](NC(=O)[C@H](CCCCN)NC(=O)CC[C@H](NC(=O)CCCCCCCCCCCCCCCCCCC(=O)O)C(=O)O)C(=O)N[C@@H](CC(N)=O)C(=O)N[C@@H]([C@@H](C)O)C(=O)N[C@@H](C)C(=O)N[C@@H]([C@@H](C)O)C(=O)N1)[C@@H](C)O)C(=O)N1CCC[C@H]1C(=O)N[C@@H](CO)C(=O)N[C@@H](CO)C(=O)N[C@H](C(=O)N[C@@H](CC(N)=O)C(=O)N[C@H](C(=O)NCC(=O)N[C@@H](CO)C(=O)N[C@@H](Cc1c[nH]cn1)C(=O)N[C@H](C(=O)N[C@@H](Cc1ccc(O)cc1)C(N)=O)[C@@H](C)O)C(C)C)[C@@H](C)O, also called 14E, 17R, 21P, 27P, 35H) | 0.554
